The test system of test [1] is rabbit anti-Amb a I polyclonal antibody. Put plainly: Western blot with rabbit anti-Amb a I polyclonal antibody (FIG. 17). The format is binding. The source says:
As is also represented in FIG. 1A, rabbit polyclonal antibodies were produced using the King Antigen E preparation. […] These antibodies were also shown, using a similar technique, to bind to the affinity purified Amb a I described previously (FIG. 17).
It is clear from the antibody reactivity that the 4B5/B7 affinity purified Amb a I has a recognition pattern similar to that of the Amb a I of pollen and skin test reagent with both rabbit polyclonal anti-Amb a I and JB1E3-4 anti-Amb a I monoclonal antibody (FIG. 17).
(§1) Affinity purified Amb a I was electrophoresed, Western transferred (Towbin et al., Proc. Natl. Acad. Sci. USA, 76:4350 (1979)) and probed with a variety of antibodies, including IgE from an allergic patient (FIG. 17). In pollen extract Amb a I is not only present as an intact 38-KD species, but also characterized by its component 26KD alpha chains and 12-KD beta chains which are formed by enzymatic cleavage. The intact 38-KD species and the alpha chain are clearly detected using rabbit anti-Amb a I, polyclonal affinity purified anti-RAE 16 and monoclonal anti-Amb a I JBIE3-4 (FIG. 17); RAE 16 peptide has the sequence RTDKDLLENGAIC derived from amino-acids 343-353 of Amb a IB, FIG. 16). […]

Test [2] deals with human IgE (ragweed allergic patient sera). As to the kind of experiment: SDS-PAGE Western blot (and ELISA) of ragweed allergic patient IgE binding to pollen, affinity purified and recombinant Amb a I / Amb a II. On the set-up: key to IgE binding, summarized Western blot data: −: no signal over background; +−: barely discernable over background; +: clearly positive; ++: strongly positive; +++: highly positive. The following applies: for Human IgE binding (in words): Western blot (FIG. 17) and/or ELISA, ragweed allergic patient IgE; for Extent of specific IgE binding relative to Amb a IB or Amb a II (in words): patient #295, FIG. 20. Here is the method:
As represented in FIG. 1A, a selected monoclonal antibody (designated 4B5/B7) which recognizes an Amb a I preparation unsubjected to denaturing conditions was used to affinity purify from pollen extract a single protein, which is referred to as affinity purified Amb a I. This was carried out, using known techniques, by producing the desired monoclonal antibody, isolating it in large quantities from ascites and immobilizing it on Sepharose (Pharmacia). Aqueous pollen extract was passed over the monoclonal antibody-containing column and a protein species was eluted.
Furthermore, full-length and truncated cDNAs encoding several members of the Amb a I multigene family, as well as Amb a II, were cloned in-frame into the expression vector pTrc99 (Amann et al. Gene, 69:301-315, (1988)) and transformed into the JM109 host. Expression of recombinant Amb a I and Amb a II protein was induced by 1 mM isopropyl-β-D-thiogalactopyranoside, cells were harvested, lysozyme treated, sonicated and insoluble inclusion bodies recovered by a low speed centrifugation. Recombinant Amb a I and Amb a II protein present in the recovered pellet was solubilized in buffer containing 8M urea, 50 mM Tris HC1 pH8.0, 50 mM NaCl, 1 mM EDTA, 1 mM dithiothreitol, 1 mM phenylmethylsulfonyl fluoride. After solubilization, the crude urea lysate was dialyzed at 4° C. against PBS. […] This antigenic cross-reactivity is consistent with the observed sequence homology of the cDNAs (see FIG. 16).
Comparison of human IgE binding to recombinant Amb a I and Amb a II proteins with anti-peptide and monoclonal anti-Amb a I antibodies have provided data consistent with the conclusion that the N-terminal portion (historically referred to as the β-region) of Amb a IA includes the major IgE eptiope(s).
as §1, with “16). Affinity purified Amb a I (partial sequence presented in Table 1) as well as chromatographically purified Amb a II (partial sequence presented in Table 2) are bound on Western blots by these antibodies as well as by patient IgE (FIG. 17). The goat anti-Amb a I polyclonal antibody also binds multiple Amb a I and Amb a II species on a two dimensional Western blot of pollen extract (FIG. 18). The Western blot was performed as outlined below.” for “16).”

The results in this text go back to patent US6335019B1, “Methods for treating sensitivity to protein allergen using peptides which include a T cell epitope recognized by a T cell receptor specific for the protein allergen” (Immulogic Pharmaceutical Corp., priority 1989, dated 2002).

B1: affinity purified Amb a I: protein affinity purified from pollen extract with monoclonal antibody 4B5/B7 (protein)
chain: AEDLQEILPVNETRRLTTSGAYNIIDGCWRGKADWAENRKALADCAQGFGKGTVGGKDGDIYTVTSELDDDVANPKEGTLRFGAAQNRPLWIIFERDMVIRLDKEMVVNSDKTIDGRGAKVEIINAGFTLNGVKNVIIHNINMHDVKVNPGGLIKSNDGPAAPRAGSDGDAISISGSSQIWIDHCSLSKSVDGLVDAKLGTTRLTVSNSLFTQHQFVLLFGAGDENIEDRGMLATVAFNTFTDNVDQRMPRCRHGFFQVVNNNYDKWGSYAIGGSASPTILSQGNRFCAPDERSKKNVLGRHGEAAAESMKWNWRTNKDVLENGAIFVASGVDPVLTPEQSAGMIPAEPGESALSLTSSAGVLSCQPGAPC
Turning to B1, the “Binding by rabbit anti-Amb a I polyclonal antibodies (in words)” value in test [1] is recorded as “bind”. The “Human IgE binding (in words)” value in test [2] is listed as “bind human IgE”; in test [2] (listed as 4B5/B7 affinity purified Amb a I), “readily detectable IgE reactivity”; in test [2] (listed as Affinity purified Amb a I) it was “bound”.

B2: Amb a IC: E. coli expressed recombinant Amb a IC, used as crude bacterial lysate (protein)
chain: LYFTLALVALLQPVRSAEGVGEILPSVNETRSLQACEALNIIDKCWRGKADWENNRQALADCAQGFAKGTYGGKWGDVYTVTSNLDDDVANPKEGTLRFAAAQNRPLWIIFKNDMVINLNQELVVNSDKTIDGRGVKVEIINGGLTLMNVKNIIIHNINIHDVKVLPGGMIKSNDGPPILRQASDGDTINVAGSSQIWIDHCSLSKSFDGLVDVTLGSTHVTISNCKFTQQSKAILLGADDTHVQDKGMLATVAFNMFTDNVDQRMPRCRFGFFQVVNNNYDRWGTYAIGGSSAPTILCQGNRFLAPDDQIKKNVLARTGTGAAESMAWNWRSDKDLLENGAIFVTSGSDPVLTPVQSAGMIPAEPGEAAIKLTSSAGVFSCRPGAPC
Take B2: the “IgE binding, summarized Western blot data” value in test [2] (patient 151) was “+”; in test [2] (patient 222), “+−”; in test [2] (patient 291), “+++”; in test [2] (patient 295) it was “+++”; in test [2] (patient 296), “++”. In addition, the “Extent of specific IgE binding relative to Amb a IB or Amb a II (in words)” value in test [2] is recorded as “far greater extent”.

B3: Amb a IB: E. coli expressed recombinant Amb a IB, used as crude bacterial lysate (protein)
chain: LYFTLALVTLLQPVRSAEDVEEFLPSANETRRSLKACEAHNIIDKCWRCKADWANNRQALADCAQGFAKGTYGGKHGDVYTVTSDKDDDVANPKEGTLRFAAAQNRPLWIIFKRNMVIHLNQELVVNSDKTIDGRGVKVNIVNAGLTLMNVKNIIIHNINIHDIKVCPGGMIKSNDGPPILRQQSDGDAINVAGSSQIWIDHCSLSKASDGLLDITLGSSHVTVSNCKFTQHQFVLLLGADDTHYQDKGMLATVAFNMFTDHVDQRMPRCRFGFFQVVNNNYDRWGTYAIGGSSAPTILSQGNRFFAPDDIIKKNVLARTGTGNAESMSWNWRTDRDLLENGAIFLPSGSDPVLTPEQKAGMIPAEPGEAVLRLTSSAGVLSCHQGAPC
For the molecule B3, the “IgE binding, summarized Western blot data” value in test [2] (patient 151) is listed as “−”; in test [2] (patient 222), “+−”; in test [2] (patient 291) it was “−”; in test [2] (patient 295), “+”.

B4: Amb a IA: full-length recombinant Amb a IA, amino acid 10-398, E. coli expressed, used as crude bacterial lysate (protein)
chain: LYFTLALVTLLQPVRSAEDLQEILPVNETRRLTTSGAYNIIDGCWRGKADWAENRKALADCAQGFGKGTVGGKDGDIYTVTSELDDDVANPKEGTLRFGAAQNRPLWIIFERDMVIRLDKEMVVNSDKTIDGRGAKVEIINAGFTLNGVKNVIIHNINMHDVKVNPGGLIKSNDGPAAPRAGSDGDAISISGSSQIWIDHCSLSKSVDGLVDAKLGTTRLTVSNSLFTQHQFVLLFGAGDENIEDRGMLATVAFNTFTDNVDQRMPRCRHGFFQVVNNNYDKWGSYAIGGSASPTILSQGNRFCAPDERSKKNVLGRHGEAAAESMKWNWRTNKDVLENGAIFVASGVDPVLTPEQSAGMIPAEPGESALSLTSSAGVLSCQPGAPC
Consider B4, for which the “IgE binding, summarized Western blot data” value in test [2] (patient 151) is “+”; in test [2] (patient 222) it was “+−”; in test [2] (patient 291) it was “+++”; in test [2] (patient 295), “+++”; in test [2] (patient 296), “++”. Besides, the “Extent of specific IgE binding relative to Amb a IB or Amb a II (in words)” value in test [2] was “far greater extent”.
